Reference: US20110166208

Test system: bacterially-expressed calmodulin (non-methylated)

Xenopus laevis calmodulin protein methyltransferase, sequence (chain, as listed by the source): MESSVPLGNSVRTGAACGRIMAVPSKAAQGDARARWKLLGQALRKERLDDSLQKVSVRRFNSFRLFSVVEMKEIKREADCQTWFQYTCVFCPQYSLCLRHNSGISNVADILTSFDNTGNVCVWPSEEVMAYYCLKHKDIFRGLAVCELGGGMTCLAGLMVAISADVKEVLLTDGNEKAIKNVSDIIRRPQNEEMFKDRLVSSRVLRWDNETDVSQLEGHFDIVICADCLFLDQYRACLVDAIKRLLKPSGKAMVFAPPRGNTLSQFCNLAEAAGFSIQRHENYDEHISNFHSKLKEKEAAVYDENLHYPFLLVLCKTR

| Substance | catalytic activity | incorporation of radiolabel from [3H-methyl]AdoMet into calmodulin (phosphorimage) | methyltransferase activity (in vitro) | specific activity |
| --- | --- | --- | --- | --- |
| Homo sapiens calmodulin protein methyltransferase, initially expressed clone with V209F (cDNA Accession BC 053733) | the initially expressed form of Hscalmodulin PKMT was catalytically inactive |  |  |  |
| Rattus norvegicus calmodulin protein methyltransferase |  | the radiolabel from [^3H-methyl]AdoMet was incorporated into calmodulin, in the presence of the recombinant calmodulin methyltransferases obtained from SEQ ID NO: 1, 2, and 3 | Each of the proteins exhibited robust methyltransferase activity (in vitro) toward non-methylated forms of calmodulin | 56 nmoles min^-1 mg protein^-1 |
| Homo sapiens calmodulin protein methyltransferase (valine at 209, catalytically active form) | alteration of the sequence of the clone to correspond to the gene-predicted valine restored catalytic activity to amounts similar to those observed for other cloned calmodulin KMTs | the radiolabel from [^3H-methyl]AdoMet was incorporated into calmodulin, in the presence of the recombinant calmodulin methyltransferases obtained from SEQ ID NO: 1, 2, and 3 | Each of the proteins exhibited robust methyltransferase activity (in vitro) toward non-methylated forms of calmodulin |  |
| Tribolium casteaneum calmodulin protein methyltransferase |  |  | Each of the proteins exhibited robust methyltransferase activity (in vitro) toward non-methylated forms of calmodulin |  |
| Xenopus laevis calmodulin protein methyltransferase |  | the radiolabel from [^3H-methyl]AdoMet was incorporated into calmodulin, in the presence of the recombinant calmodulin methyltransferases obtained from SEQ ID NO: 1, 2, and 3 | Each of the proteins exhibited robust methyltransferase activity (in vitro) toward non-methylated forms of calmodulin |  |
| Arabidopsis thaliana calmodulin protein methyltransferase |  |  | Each of the proteins exhibited robust methyltransferase activity (in vitro) toward non-methylated forms of calmodulin |  |
